Legend:
[1] = target: MBD2FLsc (human) (UniProt Q9UBB5); test: SPR; conditions: 5-methyl-C at position 9 of strand 1 (central CpG), complement mC at position 8 implied, not given, SPR: 10 mM HEPES pH 7.4, 50 mM NaCl, 3 mM MgCl2, 0.1 mM EDTA, 1 mM DTT, 0.05% polysorbate 20, FP: 10 mM HEPES pH 7.5, 50 or 150 mM NaCl
[2] = target: MBD2FLsc (human) (UniProt Q9UBB5); test: fluorescence polarization; conditions: 5-methyl-C at position 9 of strand 1 (central CpG), complement mC at position 8 implied, not given, SPR: 10 mM HEPES pH 7.4, 50 mM NaCl, 3 mM MgCl2, 0.1 mM EDTA, 1 mM DTT, 0.05% polysorbate 20, FP: 10 mM HEPES pH 7.5, 50 or 150 mM NaCl
[3] = target: T1, MBD2(150-260) (human, UniProt Q9UBB5 150-260); test: fluorescence polarization; 50 mM NaCl; SPR: 10 mM HEPES pH 7.4, 50 mM NaCl, 3 mM MgCl2, 0.1 mM EDTA, 1 mM DTT, 0.05% polysorbate 20; FP: 10 mM HEPES pH 7.5, 50 or 150 mM NaCl, 3 mM MgCl2, 0.1 mM EDTA, 1 mM DTT, 0.02% azide; temperature not stated; conditions: protein: recombinant; tags: thioredoxin-His fusion (modified pET32a; tag retained); label: 3' FAM on reverse strand; blunt
[4] = target: T2, MBD2MBD (human, UniProt Q9UBB5 150-214); test: as above; conditions: protein: recombinant; tags: thioredoxin-His fusion (modified pET32a; tag retained); label: 3' FAM on reverse strand; blunt
[5] = target: T1, MBD2(150-260); test: SPR; 50 mM NaCl, 3 mM Mg2+; SPR: 10 mM HEPES pH 7.4, 50 mM NaCl, 3 mM MgCl2, 0.1 mM EDTA, 1 mM DTT, 0.05% polysorbate 20; FP: 10 mM HEPES pH 7.5, 50 or 150 mM NaCl, 3 mM MgCl2, 0.1 mM EDTA, 1 mM DTT, 0.02% azide; temperature not stated; conditions: protein: recombinant; tags: thioredoxin-His fusion (modified pET32a; tag retained); label: 3' biotin on forward strand; blunt
[6] = target: T2, MBD2MBD; test: SPR steady state; 50 mM NaCl, 3 mM Mg2+; SPR: 10 mM HEPES pH 7.4, 50 mM NaCl, 3 mM MgCl2, 0.1 mM EDTA, 1 mM DTT, 0.05% polysorbate 20; FP: 10 mM HEPES pH 7.5, 50 or 150 mM NaCl, 3 mM MgCl2, 0.1 mM EDTA, 1 mM DTT, 0.02% azide; temperature not stated; conditions: protein: recombinant; tags: thioredoxin-His fusion (modified pET32a; tag retained); label: 3' biotin on forward strand; blunt

Sequence of MBD2FLsc (human) (Q9UBB5 whole entry, the tested form may be a part): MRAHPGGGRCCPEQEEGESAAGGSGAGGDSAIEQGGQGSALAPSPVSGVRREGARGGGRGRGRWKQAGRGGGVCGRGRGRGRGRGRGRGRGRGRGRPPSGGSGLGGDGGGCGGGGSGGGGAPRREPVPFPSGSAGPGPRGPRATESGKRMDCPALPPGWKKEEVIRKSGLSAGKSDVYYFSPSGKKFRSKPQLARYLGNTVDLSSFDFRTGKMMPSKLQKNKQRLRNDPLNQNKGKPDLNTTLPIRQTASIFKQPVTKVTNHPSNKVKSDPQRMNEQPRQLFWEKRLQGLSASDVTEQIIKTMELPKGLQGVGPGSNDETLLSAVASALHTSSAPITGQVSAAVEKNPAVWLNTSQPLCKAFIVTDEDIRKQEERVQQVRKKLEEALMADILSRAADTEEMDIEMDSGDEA
T2 sequence (Q9UBB5 150-214): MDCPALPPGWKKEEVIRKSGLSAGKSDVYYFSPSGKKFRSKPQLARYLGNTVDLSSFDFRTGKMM
T1 sequence (Q9UBB5 150-260): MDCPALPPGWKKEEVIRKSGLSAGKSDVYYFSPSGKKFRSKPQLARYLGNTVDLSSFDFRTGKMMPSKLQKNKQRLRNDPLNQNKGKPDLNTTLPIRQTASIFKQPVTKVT

Molecule: GAGGCGCTCGGCGGCAG (double strand) [17 bp central mCpG, SPR]
- Kd [1]: 2 nM

Molecule: GAGGCGCTCGGCGGCAG (double strand) [17 bp central mCpG, FP]
- binding signal (fold affinity vs 50 mM NaCl) [2]: 0.1
- binding signal (fold affinity vs MBD2MBD) [2]: 100

B1: 17 bp central mCpG, FP (dsDNA)
DNA 1: GAGGCGCTCGGCGGCAG
DNA 2: CTGCCGCCGAGCGCCTC
modifications: 5-methyl-C at position 9 of strand 1 (central CpG); complement mC at position 8 implied, not given
- binding signal [3]: ~100 fold affinity vs MBD2MBD
- binding signal [4]: ~1 fold affinity (reference)

B2: 17 bp central mCpG, SPR (dsDNA)
DNA 1: GAGGCGCTCGGCGGCAG
DNA 2: CTGCCGCCGAGCGCCTC
modifications: 5-methyl-C at position 9 of strand 1 (central CpG); complement mC at position 8 implied, not given
- Kd [5]: 20 nM
- Kd [6]: 330 nM
